We go through 3 sequences from article PMC7005674.

The target of the data set is T1, Rap1-Halo (Saccharomyces cerevisiae) (UniProt P11938).
T1 sequence: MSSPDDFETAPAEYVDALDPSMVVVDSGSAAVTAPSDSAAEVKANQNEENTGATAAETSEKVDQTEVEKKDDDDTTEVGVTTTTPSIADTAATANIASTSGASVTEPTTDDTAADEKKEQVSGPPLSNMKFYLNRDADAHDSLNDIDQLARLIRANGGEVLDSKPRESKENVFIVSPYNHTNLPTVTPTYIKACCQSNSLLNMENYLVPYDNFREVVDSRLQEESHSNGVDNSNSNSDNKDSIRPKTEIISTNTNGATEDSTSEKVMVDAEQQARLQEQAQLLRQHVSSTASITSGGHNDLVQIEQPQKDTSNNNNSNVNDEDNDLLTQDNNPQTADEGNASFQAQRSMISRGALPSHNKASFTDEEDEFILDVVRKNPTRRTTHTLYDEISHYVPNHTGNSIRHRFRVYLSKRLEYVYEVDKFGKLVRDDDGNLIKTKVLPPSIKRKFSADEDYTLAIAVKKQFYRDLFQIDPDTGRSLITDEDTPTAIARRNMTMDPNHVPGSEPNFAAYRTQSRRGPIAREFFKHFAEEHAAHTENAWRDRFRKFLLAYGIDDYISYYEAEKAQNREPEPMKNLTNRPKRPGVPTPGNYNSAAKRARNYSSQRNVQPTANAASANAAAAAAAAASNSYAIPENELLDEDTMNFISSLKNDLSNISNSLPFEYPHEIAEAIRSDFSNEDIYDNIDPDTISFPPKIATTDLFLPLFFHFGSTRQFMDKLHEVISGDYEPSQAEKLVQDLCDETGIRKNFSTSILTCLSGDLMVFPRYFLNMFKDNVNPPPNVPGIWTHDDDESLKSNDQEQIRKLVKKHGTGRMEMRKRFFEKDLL
Kind of data set: EMSA. To be noted: EMSA (DNA): 50 mM HEPES pH 7.5, 130 mM KCl, 10% glycerol, 0.005% Tween 20, 2 mM Trolox, 3.2% glucose, 50 ng/ul poly-d(I-C), 10 min, room temperature; smTIRF ….

The term Kd denotes a measure of binding affinity in units of concentration. A high value points to a looser complex. In the case of “CACACTGTGCCAAGTACTTACGCGGCCGCCCTGGAGAATCCCGGTGCCGTACATCTGTGCACCGTCGTAGACAGCTCTAGCACCGCTTAAACGCACGTACGCGCTGTCCCCCGCGTTTTAACCGCCAAGGGGATTACTCCCTAGTCTCCAGGCACGTGTCAGATACTGCAGAGATCTCTAGATCCATGGAGTACTTGGTCTCAAACC (double strand) [MN S1]”, the Kd was 76.4 nM.

“CACACTGTGCCAAGTACTTACGCGGCCGCCCTGGAGAATCCCGGTGCCGAGGCCGTACATCTGTGCACCGACAGCTCTAGCACCGCTTAAACGCACGTACGCGCTGTCCCCCGCGTTTTAACCGCCAAGGGGATTACTCCCTAGTCTCCAGGCACGTGTCAGATACTGCAGAGATCTCTAGATCCATGGAGTACTTGGTCTCAAACC (double strand) [MN S1+6]” came in with a dissociation constant Kd of 62.7 nM.

The sequence “CACACTGTGCCAAGTACTTACGCGGCCGCCCTGGAGAATCCCGGTGCCGAGGTACATCTGTGCACCGTAGACAGCTCTAGCACCGCTTAAACGCACGTACGCGCTGTCCCCCGCGTTTTAACCGCCAAGGGGATTACTCCCTAGTCTCCAGGCACGTGTCAGATACTGCAGAGATCTCTAGATCCATGGAGTACTTGGTCTCAAACC (double strand) [MN S1+3]” returned a dissociation constant (Kd) of 48.5 nM. The Kd values of the last two sequences are within 1.5-fold of each other.
